Results reported in patent publication US20240141072A1 (published 2024).
Like-named read-outs stand apart in the source and are kept apart here. Blank lines part the entries; values can stand above or below the binder they belong to.

Assays:
[1] = target: T1, human DLL3 on DLL3-expressing tumor cell lines (human, UniProt Q9NYJ7 27-618); test: cell-based or functional assay
T1 sequence: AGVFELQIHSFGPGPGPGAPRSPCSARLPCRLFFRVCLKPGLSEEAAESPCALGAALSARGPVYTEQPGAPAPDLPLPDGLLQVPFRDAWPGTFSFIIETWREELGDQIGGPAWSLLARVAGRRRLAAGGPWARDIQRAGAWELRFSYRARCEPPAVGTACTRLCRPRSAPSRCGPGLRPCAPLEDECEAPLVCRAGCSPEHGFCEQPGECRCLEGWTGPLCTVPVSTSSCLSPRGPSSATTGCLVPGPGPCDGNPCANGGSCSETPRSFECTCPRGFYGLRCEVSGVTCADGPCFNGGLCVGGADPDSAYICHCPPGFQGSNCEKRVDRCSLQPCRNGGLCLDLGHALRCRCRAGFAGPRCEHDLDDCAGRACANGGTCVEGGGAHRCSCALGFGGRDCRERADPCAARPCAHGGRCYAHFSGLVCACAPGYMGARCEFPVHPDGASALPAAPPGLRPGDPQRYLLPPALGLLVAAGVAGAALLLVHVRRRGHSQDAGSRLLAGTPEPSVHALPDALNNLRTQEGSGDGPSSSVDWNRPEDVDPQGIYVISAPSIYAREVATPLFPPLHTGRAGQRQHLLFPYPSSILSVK

[2] = target: T1, human DLL3 on DLL3-expressing tumor …; test: cell-based or functional assay; remark: listed apart in the source
[3] = target: T1, human DLL3 on DLL3-expressing tumor …; test: cell-based or functional assay; remark: listed apart in the source
[4] = target: T2, biotinylated human DLL3 protein expressed as a human IgG1 fusion protein (human, UniProt Q9NYJ7 27-492, limits assumed, biotinylated); test: Octet BLI, single 50 nM
T2 sequence: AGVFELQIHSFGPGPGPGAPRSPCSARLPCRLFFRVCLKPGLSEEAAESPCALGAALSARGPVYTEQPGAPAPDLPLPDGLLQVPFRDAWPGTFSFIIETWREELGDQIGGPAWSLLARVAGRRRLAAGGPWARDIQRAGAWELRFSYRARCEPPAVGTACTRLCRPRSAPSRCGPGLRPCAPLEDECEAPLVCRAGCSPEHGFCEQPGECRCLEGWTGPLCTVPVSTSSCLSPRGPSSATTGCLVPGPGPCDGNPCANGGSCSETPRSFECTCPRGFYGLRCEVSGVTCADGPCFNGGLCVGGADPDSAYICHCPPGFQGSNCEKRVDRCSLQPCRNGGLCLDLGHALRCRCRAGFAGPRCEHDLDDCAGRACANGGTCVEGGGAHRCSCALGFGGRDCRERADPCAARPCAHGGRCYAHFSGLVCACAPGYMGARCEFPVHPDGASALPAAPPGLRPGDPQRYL
Procedure, shortened: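 Anti-DLL3 trispecific proteins were tested directly from conditioned medium in which their concentrations were known. The tip-captured DLL3 fusion served as the immobilised partner, and binding affinity toward human DLL3 was determined from the Octet measurement.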

[5] = target: T2, biotinylated human DLL3 protein …; test: Octet BLI, 60/20/6.67/2.22 nM
Method: Using the conditioned medium with known concentrations of the anti-DLL3 trispecific proteins, the binding affinities of the anti-DLL3 trispecific proteins toward human DLL3 protein were measured using a method where biotinylated version of human DLL3 protein were expressed as a human IgG1 fusion protein, and the binding affinity measurement was carried out in an Octet instrument with streptavidin tips.

[6] = target: T3, cynomolgus DLL3 (cynomolgus, UniProt A0A2K5WSR1 27-490); test: Octet BLI, single 60 nM
T3 construct: also called cyDLL3
T3 sequence: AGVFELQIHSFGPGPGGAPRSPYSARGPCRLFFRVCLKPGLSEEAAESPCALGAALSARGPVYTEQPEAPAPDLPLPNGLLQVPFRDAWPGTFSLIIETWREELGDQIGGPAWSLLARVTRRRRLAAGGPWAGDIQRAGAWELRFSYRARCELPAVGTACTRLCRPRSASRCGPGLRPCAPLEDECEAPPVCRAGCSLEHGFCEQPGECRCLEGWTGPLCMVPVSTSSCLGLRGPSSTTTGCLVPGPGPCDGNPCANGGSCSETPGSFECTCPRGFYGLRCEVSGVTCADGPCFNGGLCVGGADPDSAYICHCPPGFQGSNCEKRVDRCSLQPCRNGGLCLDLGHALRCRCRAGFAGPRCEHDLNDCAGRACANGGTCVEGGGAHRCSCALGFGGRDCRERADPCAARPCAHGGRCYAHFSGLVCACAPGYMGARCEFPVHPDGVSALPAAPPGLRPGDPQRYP

[7] = target: T4, anti-DLL3 trispecific protein containing the parental DLL3 binder DH6; test: Octet BLI; biotinylated purified CHO trispecific on streptavidin tips; 60, 20, 6.67, 2.22 nM
T4 construct: trispecific, one chain

[8] = target: T5, anti-DLL3 trispecific protein with DLL3 binding domain 51F03; test: as above
T5 construct: trispecific, one chain; also called 51F3

[9] = target: T6, anti-DLL3 trispecific protein with DLL3 binding domain 51A05; test: as above
T6 construct: trispecific, one chain; also called 51A5

[10] = target: T7, anti-DLL3 trispecific protein with DLL3 binding domain 52C04; test: as above
T7 construct: trispecific, one chain; also called 52C4

[11] = target: T8, anti-DLL3 trispecific protein with DLL3 binding domain 51G02; test: as above
T8 construct: trispecific, one chain; also called 51G2

[12] = target: T9, anti-DLL3 trispecific protein with DLL3 binding sequence 51X5; test: as above
T9 construct: trispecific, one chain

[13] = target: T10, anti-DLL3 trispecific protein with DLL3 binding domain 52D04; test: as above
T10 construct: trispecific, one chain; same domain order as the TAC protein m79; also called 52D4

[14] = target: T11, anti-DLL3 trispecific protein with DLL3 binding domain 51G10; test: as above
T11 construct: trispecific, one chain

[15] = target: T12, anti-DLL3 trispecific protein with DLL3 binding domain 51H05; test: as above
T12 construct: trispecific, one chain; also called 51H5

[16] = target: T13, anti-DLL3 trispecific protein with DLL3 binding domain 52B01; test: as above
T13 construct: trispecific, one chain; also called 52B1
T13 sequence (chain, as listed by the source): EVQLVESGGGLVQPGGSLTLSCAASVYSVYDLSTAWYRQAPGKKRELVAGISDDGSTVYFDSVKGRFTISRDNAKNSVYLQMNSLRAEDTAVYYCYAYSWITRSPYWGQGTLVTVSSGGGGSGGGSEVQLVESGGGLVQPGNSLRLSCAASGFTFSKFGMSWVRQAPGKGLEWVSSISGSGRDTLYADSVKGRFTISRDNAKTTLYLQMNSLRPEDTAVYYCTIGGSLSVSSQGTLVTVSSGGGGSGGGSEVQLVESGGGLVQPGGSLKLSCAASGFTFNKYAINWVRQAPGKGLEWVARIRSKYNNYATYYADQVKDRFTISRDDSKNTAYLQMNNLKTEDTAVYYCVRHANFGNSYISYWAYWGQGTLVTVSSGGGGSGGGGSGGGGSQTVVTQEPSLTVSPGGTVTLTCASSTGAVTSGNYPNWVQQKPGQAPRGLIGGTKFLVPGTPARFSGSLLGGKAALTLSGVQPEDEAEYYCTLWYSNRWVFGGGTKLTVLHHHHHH

T8 sequence (chain, as listed by the source): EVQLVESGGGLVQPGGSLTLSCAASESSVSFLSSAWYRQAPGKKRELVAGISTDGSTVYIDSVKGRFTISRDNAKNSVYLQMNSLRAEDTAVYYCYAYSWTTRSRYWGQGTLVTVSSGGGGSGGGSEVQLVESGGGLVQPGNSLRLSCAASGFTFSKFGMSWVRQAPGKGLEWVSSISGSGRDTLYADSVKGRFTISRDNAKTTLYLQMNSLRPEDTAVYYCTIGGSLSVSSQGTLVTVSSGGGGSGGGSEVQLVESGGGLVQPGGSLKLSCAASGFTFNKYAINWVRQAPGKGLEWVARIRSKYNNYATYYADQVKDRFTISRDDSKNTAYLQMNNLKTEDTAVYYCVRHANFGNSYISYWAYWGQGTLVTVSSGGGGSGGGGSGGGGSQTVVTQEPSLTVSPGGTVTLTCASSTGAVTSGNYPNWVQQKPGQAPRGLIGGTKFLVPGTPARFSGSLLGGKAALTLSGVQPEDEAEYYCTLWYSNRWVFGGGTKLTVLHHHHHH
T12 sequence (chain, as listed by the source): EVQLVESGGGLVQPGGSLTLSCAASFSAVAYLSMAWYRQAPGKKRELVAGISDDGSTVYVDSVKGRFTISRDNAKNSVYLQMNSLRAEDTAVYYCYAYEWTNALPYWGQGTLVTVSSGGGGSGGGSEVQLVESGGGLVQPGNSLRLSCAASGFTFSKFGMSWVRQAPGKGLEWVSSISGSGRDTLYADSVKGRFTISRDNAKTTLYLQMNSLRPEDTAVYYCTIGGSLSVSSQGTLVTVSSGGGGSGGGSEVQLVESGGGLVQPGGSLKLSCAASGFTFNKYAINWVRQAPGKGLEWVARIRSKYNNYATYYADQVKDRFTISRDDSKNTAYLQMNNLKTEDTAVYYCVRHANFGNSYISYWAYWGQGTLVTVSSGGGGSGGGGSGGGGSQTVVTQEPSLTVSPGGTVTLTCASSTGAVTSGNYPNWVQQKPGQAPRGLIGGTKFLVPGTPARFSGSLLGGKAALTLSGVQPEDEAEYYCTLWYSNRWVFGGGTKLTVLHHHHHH
T6 sequence (chain, as listed by the source): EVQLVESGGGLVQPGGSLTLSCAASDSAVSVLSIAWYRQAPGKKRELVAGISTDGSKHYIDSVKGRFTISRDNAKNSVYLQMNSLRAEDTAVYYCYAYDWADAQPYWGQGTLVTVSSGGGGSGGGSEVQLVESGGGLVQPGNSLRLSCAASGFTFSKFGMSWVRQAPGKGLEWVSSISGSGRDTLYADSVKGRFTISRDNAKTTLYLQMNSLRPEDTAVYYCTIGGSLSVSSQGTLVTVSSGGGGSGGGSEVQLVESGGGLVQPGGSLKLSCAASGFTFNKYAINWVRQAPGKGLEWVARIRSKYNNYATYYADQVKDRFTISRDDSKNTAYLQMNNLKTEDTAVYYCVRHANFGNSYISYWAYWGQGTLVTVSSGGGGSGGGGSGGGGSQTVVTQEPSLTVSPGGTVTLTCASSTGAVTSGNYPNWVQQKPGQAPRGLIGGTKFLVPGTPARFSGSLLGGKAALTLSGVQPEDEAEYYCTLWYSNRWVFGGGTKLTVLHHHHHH
T9 sequence (chain, as listed by the source): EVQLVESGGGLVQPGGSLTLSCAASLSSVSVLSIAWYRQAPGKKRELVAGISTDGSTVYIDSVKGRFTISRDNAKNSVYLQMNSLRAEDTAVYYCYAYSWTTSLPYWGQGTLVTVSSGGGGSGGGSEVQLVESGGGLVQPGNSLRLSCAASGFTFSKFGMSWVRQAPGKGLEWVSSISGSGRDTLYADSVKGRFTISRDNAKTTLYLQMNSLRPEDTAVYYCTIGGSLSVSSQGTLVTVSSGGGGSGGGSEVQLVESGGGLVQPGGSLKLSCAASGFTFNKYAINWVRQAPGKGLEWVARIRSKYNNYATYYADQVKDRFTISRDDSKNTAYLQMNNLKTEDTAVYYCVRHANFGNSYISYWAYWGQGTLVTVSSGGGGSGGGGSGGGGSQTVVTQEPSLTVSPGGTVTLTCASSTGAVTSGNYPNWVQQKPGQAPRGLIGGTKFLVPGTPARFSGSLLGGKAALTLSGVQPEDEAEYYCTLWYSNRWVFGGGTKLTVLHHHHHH
T11 sequence (chain, as listed by the source): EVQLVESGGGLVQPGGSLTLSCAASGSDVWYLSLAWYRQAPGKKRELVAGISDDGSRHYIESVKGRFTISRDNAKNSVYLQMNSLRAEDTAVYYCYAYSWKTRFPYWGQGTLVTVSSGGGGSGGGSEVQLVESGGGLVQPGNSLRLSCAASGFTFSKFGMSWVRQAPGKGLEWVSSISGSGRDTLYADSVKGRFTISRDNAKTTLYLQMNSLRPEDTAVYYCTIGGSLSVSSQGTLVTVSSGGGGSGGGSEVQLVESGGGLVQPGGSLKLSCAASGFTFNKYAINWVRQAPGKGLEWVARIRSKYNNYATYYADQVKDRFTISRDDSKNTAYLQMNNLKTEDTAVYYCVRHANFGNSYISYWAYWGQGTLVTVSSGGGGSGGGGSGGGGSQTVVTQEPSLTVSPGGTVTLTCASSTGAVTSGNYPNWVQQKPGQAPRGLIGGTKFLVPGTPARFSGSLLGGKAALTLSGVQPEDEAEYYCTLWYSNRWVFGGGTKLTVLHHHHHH
T7 sequence (chain, as listed by the source): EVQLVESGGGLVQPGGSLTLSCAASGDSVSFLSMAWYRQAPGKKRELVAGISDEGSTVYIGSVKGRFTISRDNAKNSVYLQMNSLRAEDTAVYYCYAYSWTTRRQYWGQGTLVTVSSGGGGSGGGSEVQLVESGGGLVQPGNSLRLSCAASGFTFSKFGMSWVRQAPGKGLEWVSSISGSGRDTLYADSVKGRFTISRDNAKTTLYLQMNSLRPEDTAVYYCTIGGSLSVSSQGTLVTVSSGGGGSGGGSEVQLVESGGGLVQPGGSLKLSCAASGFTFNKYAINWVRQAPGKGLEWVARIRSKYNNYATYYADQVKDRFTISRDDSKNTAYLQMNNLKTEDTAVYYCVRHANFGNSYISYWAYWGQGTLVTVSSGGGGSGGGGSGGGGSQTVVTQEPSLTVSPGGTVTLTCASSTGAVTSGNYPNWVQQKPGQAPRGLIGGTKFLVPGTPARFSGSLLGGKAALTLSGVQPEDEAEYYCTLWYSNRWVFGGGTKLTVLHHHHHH
T10 sequence (chain, as listed by the source): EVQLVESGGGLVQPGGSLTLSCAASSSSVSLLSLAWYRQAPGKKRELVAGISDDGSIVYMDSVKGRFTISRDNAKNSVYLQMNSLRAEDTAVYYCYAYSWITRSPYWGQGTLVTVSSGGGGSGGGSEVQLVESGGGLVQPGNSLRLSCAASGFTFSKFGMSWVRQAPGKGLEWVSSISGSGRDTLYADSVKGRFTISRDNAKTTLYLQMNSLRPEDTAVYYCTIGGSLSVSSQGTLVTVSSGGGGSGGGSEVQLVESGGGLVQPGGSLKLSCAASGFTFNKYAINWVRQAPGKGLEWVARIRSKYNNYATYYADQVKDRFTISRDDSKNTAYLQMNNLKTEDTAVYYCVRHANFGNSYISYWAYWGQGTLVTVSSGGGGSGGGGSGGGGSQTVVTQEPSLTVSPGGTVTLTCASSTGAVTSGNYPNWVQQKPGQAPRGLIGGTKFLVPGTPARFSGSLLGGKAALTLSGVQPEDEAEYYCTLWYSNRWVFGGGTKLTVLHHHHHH
T5 sequence (chain, as listed by the source): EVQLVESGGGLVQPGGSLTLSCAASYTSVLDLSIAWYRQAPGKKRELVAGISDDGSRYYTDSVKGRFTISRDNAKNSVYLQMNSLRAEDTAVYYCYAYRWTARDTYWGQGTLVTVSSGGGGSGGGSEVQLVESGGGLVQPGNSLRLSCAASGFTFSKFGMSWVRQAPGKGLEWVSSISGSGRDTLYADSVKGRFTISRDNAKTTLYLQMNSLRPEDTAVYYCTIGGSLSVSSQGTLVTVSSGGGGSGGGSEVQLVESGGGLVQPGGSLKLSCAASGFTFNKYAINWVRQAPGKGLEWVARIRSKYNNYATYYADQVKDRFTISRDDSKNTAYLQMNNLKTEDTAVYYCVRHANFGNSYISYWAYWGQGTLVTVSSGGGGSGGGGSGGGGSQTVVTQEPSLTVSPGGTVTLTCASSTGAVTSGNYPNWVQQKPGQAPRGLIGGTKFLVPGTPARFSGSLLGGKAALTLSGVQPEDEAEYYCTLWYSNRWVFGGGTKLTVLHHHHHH
T4 sequence (chain, as listed by the source): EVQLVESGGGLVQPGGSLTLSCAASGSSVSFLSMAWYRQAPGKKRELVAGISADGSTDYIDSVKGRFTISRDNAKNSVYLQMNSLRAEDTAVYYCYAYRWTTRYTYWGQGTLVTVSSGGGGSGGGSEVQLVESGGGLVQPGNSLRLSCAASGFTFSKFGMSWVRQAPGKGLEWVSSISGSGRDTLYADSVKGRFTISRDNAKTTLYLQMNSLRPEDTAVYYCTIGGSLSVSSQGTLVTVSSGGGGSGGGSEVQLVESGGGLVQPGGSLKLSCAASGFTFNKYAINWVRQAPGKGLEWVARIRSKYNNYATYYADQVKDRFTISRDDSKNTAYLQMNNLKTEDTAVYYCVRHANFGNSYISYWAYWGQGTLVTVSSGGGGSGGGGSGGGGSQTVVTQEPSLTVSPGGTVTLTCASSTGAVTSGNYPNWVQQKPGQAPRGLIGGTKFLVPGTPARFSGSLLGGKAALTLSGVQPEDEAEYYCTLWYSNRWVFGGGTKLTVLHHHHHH

fold increase in TDCC potency compared to the parental DLL3 binder DH43 [1]: > 7 fold
DMS-153 TDCC EC50 [2]: 0.063 nM
DMS-153 TDCC EC50 [3]: 0.028 nM
Kd [4]: 3.5 nM
Kd [5]: 2.9 nM
Kd [6]: 4.3 nM
B1: 1H012 anti-DLL3 trispecific protein (other)
chain: EVQLVESGGGLVQPGGSLTLSCVASGSTSSINAMGWYRRAPGKQRELVAGISSDGSKVYVDSVKGRFTISRDNAKNSVYLQMNSLRAEDTAVYYCYYFRTVSGSSMPYWGQGTLVTVSS
notes: also called 1H12; not shown: linker 1808, anti-albumin sdAb, linker 1808, anti-CD3 fragment, His6 1819

Kd [7]: 11 nM
Kd [8]: 2 nM
Kd [9]: 1.6 nM
Kd [10]: 3 nM
Kd [11]: 3.4 nM
Kd [12]: 1.5 nM
Kd [13]: 1.7 nM
Kd [14]: 1.4 nM
Kd [15]: 1.6 nM
Kd [16]: 1.9 nM
B2: cynomolgus DLL3 protein (Example 6) (ligand)
chain: T3 sequence
notes: also called cyDLL3

Kd [7]: 13.5 nM
Kd [8]: 1.4 nM
Kd [9]: 1.2 nM
Kd [10]: 2.2 nM
Kd [11]: 2 nM
Kd [12]: 1 nM
Kd [13]: 0.9 nM
Kd [14]: 0.9 nM
Kd [15]: 0.9 nM
Kd [16]: 1.1 nM
B3: human DLL3 protein (Example 6) (ligand)
chain: T2 sequence
notes: also called huDLL3
